Assay [1] has as its target α-synuclein fibrils (human), P37840. Put plainly: inhibition ELISA, fibrils against monomers. The conditions noted are these: remark: other sources report otherwise.
The target is the same in assay [2]. As to the kind of experiment: SPR, BIAcore X100, fibrils immobilised on CM5, mAb injected. To be noted: remark: other sources report otherwise. In general terms: Surface plasmon resonance follows binding to a sensor surface in real time, without labels.

Substitutions are numbered along the chain they refer to.

B1: Syn-F1 (antibody)
chain 1: DVQLVESGGDLVQPGGSRKLSCAASGFTFSSFGMHWVRQAPEKGLEWVAYINSGSSTIYYADTVKGRFTISRDNPKNTLFLQMTSLRSEDTAMYYCARGNNPGTGYYYSMDYWGQGTSVTVSS
chain 2: not shown
Usually Kd stands for the equilibrium constant for the complex coming apart. Low values mean higher affinity, high ones lower affinity. One may read the koff as a measure of how fast the partners let go of each other. Read a high koff as a short-lived complex. As usually defined, the kon is the second-order rate constant of association. High values mean fast association, low ones slow association. In assay [1], B1 gave a Fold Affinity to Fibrils of 16600 fold. Also, in assay [2], the Kd was 0.127 nM, the koff came out at 0.00156 s⁻¹ and the on-rate constant (kon) was determined as 1.23e+07 M⁻¹ s⁻¹.

B2: Syn-F2 (antibody)
chain 1: B1 chain 1 with D10G, N52S, S109A
chain 2: not shown
For B2, the Fold Affinity to Fibrils in assay [1] is 3140 fold. In assay [2], this molecule gave a dissociation constant Kd of 2.69 nM, a koff of 0.00338 s⁻¹ and a kon of 1.26e+06 M⁻¹ s⁻¹.

(Values after US20140241987A1.)
